# In the supplement of paper PMC12042874:
# ± gives the uncertainty stated by the source.
# Experiment: amyloid nucleation score (Sup35N fusion, yeast selection) (log enrichment); library NNK3; higher = more nucleation; inactive = no reads after selection
# Outline: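 Yeast lacking psi expressed peptides of 20 random codons fused to Sup35N, received 100 μM copper sulfate for 24 hours, and were then grown for 7 days at 30°C on medium lacking adenine and uracil. Illumina sequencing of input and output plasmid inserts provided the reads. Nucleation scores are DiMSum log enrichments of output over input, centred on the mode of non-aggregating sequences. Any sequence with under 100 input reads was excluded.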
row,Substance,amyloid nucleation score
1,GLTTSYQPYILYIL,inactive
2,YSFRNSIDAFRLEYKKRYRF,-0.403 ± 0.93
3,YTLLCNPMVSKSARRLLNWI,inactive
4,NPPKDGYMLTWIIYDRKAGT,inactive
5,YFPSYYVADFSSHLLMGQVY,inactive
6,RGCKKLYRIKANVMYVSTVN,inactive
7,GLFESERIYMWAYHFR,inactive
8,FNFFTKVASDHRNI,inactive
9,YSCTFYTLCPENI,1.85 ± 0.07
10,EVLEFVSNGGMVTEMGP,inactive
11,CRPRLVLSFGQIVY,inactive
12,NYVMRILILCSNGWLGRECV,inactive
13,VCMFEFMDKFWNFVVTAEQC,inactive
14,FWRLRWYMRDGFSDYSGGEY,0.719 ± 0.13
15,GLCPYSIQFFGGRSDHNW,1.24 ± 0.15
16,GESNVFILSAFNFNALVGFS,inactive
17,LGPVIS,-0.46 ± 1.7
18,IVANGCRWQVRVPWGLTSKW,inactive
19,VYETELTFSARPRFCWCC,0.094 ± 0.59
20,PNRFNIIHVKFRFSFYATLT,inactive
21,KTLIVVAVSFIWL,0.887 ± 0.19
22,GRRMSNLEKPVLLDIKANFL,inactive
23,SRRSHWFWEPSDTCASFTRP,inactive

row,Substance,amyloid nucleation score
1,MFFELSLIISCFTEV,1.42 ± 0.11
2,SESCFDMMPCLVGLKSERGQ,inactive
3,LMPRTEI,inactive
4,RSYLN,inactive
5,SPVAYRSTWFVFRNNSHYDQ,inactive
6,ESIYVNPGDSL,inactive
7,FDWIE,inactive
8,GGEGHSEVRRKTPGITCACI,inactive
9,NWLMSTTFRAYGV,inactive
10,NTAYHKRRGW,-0.004 ± 0.71
11,KMILRFFSI,1.52 ± 0.063
12,FIDQVDIVVCWSTWAI,inactive
13,DFYFRVIVVGGHCVSDTSFL,inactive
14,HSSGDTWLGRV,inactive
15,LHASMLLLRNNRSRS,inactive
16,GAVRMVETTMYFLFTMPSGS,0.359 ± 0.24
17,LYSVLGVVSTDSRRDAEWCQ,inactive
18,YNFGLVNV,inactive
19,NVLCSFYLMYGLTSAWSVS,inactive
20,NLKNYVFWREILSYVSDPWD,inactive
21,NILRTRSRF,inactive
22,SIYLCLYREVSTVWGKRSN,inactive
23,GLGTAD,inactive

row,Substance,amyloid nucleation score
1,SVTPFPIIFN,inactive
2,GWMSATVLFQLSE,inactive
3,CKGNINTYGYLYLDVYFYIM,1.94 ± 0.073
4,SICMNNLCVSWTMPYT,1.5 ± 0.11
5,LLMGSSSSV,inactive
6,RTDCV,inactive
7,IKCIPFCDVGWSLTVLRYVT,inactive
8,LYLGTSYHRNC,inactive
9,RYRSGLDPFRCSYFNSPFYS,inactive
10,SCKGNVFVSSGWEFGAYFTG,0.751 ± 0.23
11,SFYVLIVQRCELMSVVVMES,inactive
12,GILSKIDVSWWRMAVSVKCW,inactive
13,NKMDSKYPGRLCLMWGW,0.48 ± 0.19
14,AYCGACFNLSAYTSKCLELM,inactive
15,TWNMFDGSVRHFSIWFSARS,inactive
16,RLGFF,inactive
17,YSTFLFQGYLFLEPEYSGCR,inactive
18,VLLGTSECHSHKILQGKSAV,inactive
19,FGGLWLICSVVYTLNCRSMV,1.79 ± 0.081
20,IVLCMVFCWSRPWEVIIFKV,inactive
21,DRRNNVRFVVLFSRRYCGQA,inactive
22,GQSNMFCNWTFANVKRCNL,2.33 ± 0.071
23,IYLMISWQWGSGLQPNIRPA,inactive

row,Substance,amyloid nucleation score
1,TSYKKRFCGQYLMLNVNMSW,inactive
2,TPLSHNVRIMKKLGCDRRD,inactive
3,LCGATCLMFMLHVKCTSGFE,inactive
4,GHPGNSAEADKCGHRQRRP,inactive
5,RNWKSYRYAVGRCDMGSELL,inactive
6,GNMQVRYRIESANNRMGQRE,0.261 ± 0.47
7,ILIYVQML,0.521 ± 0.22
8,AGVVHRWGLQCFSLNFECGC,2.08 ± 0.079
9,CVMGIRIHPFVVYNGQGGTS,inactive
10,VKDNFRFSLNRPMKRHVVWA,inactive
11,IIKDLPVCVDERASYAEVMS,inactive
12,MPCVMILYVIYSIY,0.013 ± 0.59
13,YPSGVYKFFAASATCWIM,inactive
14,IGFAD,inactive
15,SCYISNFLSGCKLFMNRFL,inactive
16,VCLLSS,inactive
17,YCDSCLNDFLVWYF,inactive
18,LCSIVWRGIRDAYGQRYYVV,inactive
19,VTVSHCRIRFFRLESDDGLC,-0.218 ± 0.88
20,DYTGT,-0.191 ± 0.74
21,QNECLGHQNWLNVVLKVAMM,inactive
22,HCQQGS,inactive
23,NAFICGSRYQVVKDSDDHCM,inactive

row,Substance,amyloid nucleation score
1,FNCLHIYWMM,0.372 ± 0.42
2,FGVFVWEVVVGNMLLPHMVN,inactive
3,LYMYYWLSYVV,inactive
4,NKDFGFSYIRTFPRILKVW,inactive
5,FHSWIFQTISLPGQGYRLQ,inactive
6,VLYVIRNYSGDG,1.62 ± 0.096
7,GNLLMYHGIWGTNALEDRYL,inactive
8,VSSILQRIISYFRTARFNYL,inactive
9,PLWHTWFGYAE,0.494 ± 0.24
10,EQRLSSGRWVS,inactive
11,KFSYNVQLRVAWYVSGGSGT,inactive
12,KRMWKGE,inactive
13,VFFYSDHVLCVYFVSLYSFS,0.386 ± 0.42
14,THVPYIT,inactive
15,HLWVSVVNSTESSMTMA,inactive
16,TFLVTRVPYSFF,inactive
17,YSWGRWICHNVVE,-0.21 ± 0.74
18,SPWAMGCECLVRGGLEKYAK,inactive
19,SFSPFVTFNKWSRWGLRNIG,inactive
20,WDIMSRYLCMYIGYTARRCM,inactive
21,QQWWLLFSLC,inactive
22,YFRFFTFSNCRDYKDTYPTL,0.972 ± 0.23
23,GSQYNSFSK,inactive

row,Substance,amyloid nucleation score
1,VCEQYFGRCNLRNKFCIWTL,inactive
2,VGCRMPVACRTWRDKYALAR,inactive
3,YGFRVCYPQASMSTVVEHSR,inactive
4,MELYPLLVGNFSIQKKVECN,inactive
5,ETGDI,1.64 ± 0.087
6,KTNRFHIDFAIDTPRLSLFL,inactive
7,VGSAGVSVFVWRVCRFCEGN,-0.434 ± 1.1
8,LYSCRFMNLKTYLVL,inactive
9,IVDASGQRAMGSDFIHVLHR,inactive
10,YQGAFS,0.341 ± 0.83
11,INLFICMCEKGYPHDSWVCC,2.58 ± 0.083
12,LYKSNPLFPCQFCLISGKFC,0.868 ± 0.12
13,RSLYASLCVRIFDGLYCCMK,inactive
14,GNGSMVVYKSARVNLLSGIT,inactive
15,VWGAHPLFGSISVARTISNW,inactive
16,FGLYYRLPNNCNKTGNQFTV,inactive
17,SCFRFKTQLTIGLVEEISCA,inactive
18,IGSAISGNYYTINNCDFDTS,inactive
19,RIPSGFTL,inactive
20,RYVSSLLSNLRGQKNCVSVL,inactive
21,PDVDLTTMLNNNMNYMYVKI,inactive
22,LMIMSKVSKSP,0.465 ± 0.25
23,KTKGICSSMLVFC,inactive

row,Substance,amyloid nucleation score
1,DNDVHKELFSPAASLSSTWS,inactive
2,ESFPFVSASDCSCSNR,inactive
3,TRAMHSFWFESDCKY,inactive
4,LFYMLPIIVFAPVLMAWLSF,inactive
5,RKFAGYQSSNASGSPVQGMS,inactive
6,TWQEVMNVQRTS,inactive
7,ISSIYREYLLKHGMFRKRRK,inactive
8,LYSGFI,inactive
9,WGTLTLCTGDAGLSMTGKWV,0.399 ± 0.43
10,HPESCPGLGSLSGEPR,inactive
11,SRLTAFMNYVGCRMVSGWTR,inactive
12,SCEFYDSVLWSYFKMAMFAL,-0.698 ± 0.8
13,MVWKHYTSLNRDCVFNICCW,1.78 ± 0.063
14,ILSVYDFNWFWKAKRDLYIS,inactive
15,CTAILAVMSIGNFFNRLDLN,inactive
16,RRGVRPNATMSA,inactive
17,DYYGLK,inactive
18,DKYFVAASWFRWVLVYMGWS,inactive
19,LHMCNS,inactive
20,GDNHSQD,0.37 ± 0.16
21,GTYCFINLTTRTGDRKGRHA,1.05 ± 0.12
22,SCKELLPFWARELLRFNRYC,inactive
23,YGGDSNRIRVRLFKMKTLNL,inactive
